From article PMC4961446, “Dual Role of a Biosynthetic Enzyme, CysK, in Contact Dependent Growth Inhibition in Bacteria” (PLoS ONE, 2016)
Several values for one entry are separate records, joined by “and”; a condition that tells them apart may be missing. Equal entries are not always repeated.

Assays:
RelE (Escherichia coli) = RelE (Escherichia coli) (UniProt P0C077); conditions: cited from earlier work
[1] = target: CdiA-CT^536(H3193A) (Escherichia coli strain 536 (UPEC536)); assay: SPR; Biacore 3000, 30°C; CdiA-CT^(M) immobilized on CM5 chip (723 RU); 10 mM HEPES pH 7.5, 150 mM NaCl, 20 μl/min; analyte CdiI 5-40 nM (1:1 Langmuir model) or CysK 0.4-6.4 μM dimer
[2] = target: CdiA-CT^536(H3193A) (Escherichia coli strain 536 (UPEC536)); assay: AUC; sedimentation velocity, 40,000 rpm, 15°C, 20 mM HEPES pH 7.5, 250 mM NaCl; 10, 20 and 30 μM; c(s) model in SEDFIT; complexes mixed and incubated at 4°C for 1 h
[3] = target: CdiA-CT^(M)/CysK complex (heterotetramer) (Escherichia coli strain 536 (UPEC536) | E. coli K12) (UniProt P0ABK5); assay: ITC; 30°C, 20 mM HEPES pH 7.5, 150 mM NaCl; CdiA-CT^(M) or its preformed complex in the sample cell, CdiI or CysK (dimer concentration) in the syringe; one-site model for CdiA-CT^(M)/CdiI, two binding site model where CysK is involved; apparent enthalpy
[4] = target: CdiA-CT^536(H3193A) (Escherichia coli strain 536 (UPEC536)); assay: as above
[5] = target: CdiA-CT^(M)/CysK complex (heterotetramer) (Escherichia coli strain 536 (UPEC536) | E. coli K12) (UniProt P0ABK5); assay: SPR; Biacore 3000, 30°C; CdiA-CT^(M) immobilized on a separate CM5 chip (760 RU), first 0.6 μM CysK (dimer) passed over it to form the CdiA-CT^(M)/CysK complex, then CdiI injected at 2.5-40 nM; local fitting, separate ka/kd model
[6] = target: SpoIISB (Bacillus subtilis) (UniProt O34800); conditions: cited from earlier work
[7] = target: the molecule itself; assay: AUC; sedimentation velocity, 40,000 rpm, 15°C, 20 mM HEPES pH 7.5, 250 mM NaCl; 10, 20 and 30 μM; c(s) model in SEDFIT; complexes mixed and incubated at 4°C for 1 h
[8] = target: CdiA-CT^(M)/CdiI complex (heterodimer) (Escherichia coli strain 536 (UPEC536)); assay: as above; conditions: scale: CysK chain per CdiA-CT^(M)/CdiI heterodimer
[9] = target: CdiA-CT^(M)/CdiI complex (heterodimer) (Escherichia coli strain 536 (UPEC536)); assay: ITC; 30°C, 20 mM HEPES pH 7.5, 150 mM NaCl; CdiA-CT^(M) or its preformed complex in the sample cell, CdiI or CysK (dimer concentration) in the syringe; one-site model for CdiA-CT^(M)/CdiI, two binding site model where CysK is involved; apparent enthalpy
[10] = target: the molecule itself; assay: SEC; analytical SEC, Superdex 200 Increase 10/300 GL, 20 mM HEPES pH 7.5, 250 mM NaCl, ~15°C; samples 10, 20 and 30 μM; for complexes purified proteins mixed in varying molar ratios and incubated at 4°C for 1 h; fractions analysed by SDS-PAGE
CysK = target: T1, CysK (Escherichia coli, UniProt P0ABK5); assay: ITC
T1 chain: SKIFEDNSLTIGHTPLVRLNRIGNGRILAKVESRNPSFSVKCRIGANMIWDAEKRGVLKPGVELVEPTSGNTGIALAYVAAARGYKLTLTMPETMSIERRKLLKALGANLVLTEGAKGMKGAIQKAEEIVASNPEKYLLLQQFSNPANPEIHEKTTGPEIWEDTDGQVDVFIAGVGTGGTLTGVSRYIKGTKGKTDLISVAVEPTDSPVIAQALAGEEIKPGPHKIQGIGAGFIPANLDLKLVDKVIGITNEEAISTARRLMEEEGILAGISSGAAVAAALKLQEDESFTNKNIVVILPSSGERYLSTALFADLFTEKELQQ

CdiA-CT^(M)/CdiI complex (heterodimer) (Escherichia coli strain 536 (UPEC536)), sequence (Q0T964 whole entry, one chain of several): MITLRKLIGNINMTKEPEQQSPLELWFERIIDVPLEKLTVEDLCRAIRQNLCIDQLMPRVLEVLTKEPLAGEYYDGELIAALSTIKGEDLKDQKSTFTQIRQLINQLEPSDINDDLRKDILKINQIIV
SpoIISB (Bacillus subtilis), sequence (O34800 whole entry): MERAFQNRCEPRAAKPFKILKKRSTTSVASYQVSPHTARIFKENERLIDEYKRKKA
RelE (Escherichia coli), sequence (P0C077 whole entry): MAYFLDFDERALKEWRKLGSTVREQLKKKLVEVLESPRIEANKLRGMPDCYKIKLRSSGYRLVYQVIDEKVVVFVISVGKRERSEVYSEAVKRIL

In the case of RelB (from UniProt P0C079), the Kd (RelE (Escherichia coli)) is listed as 0.33 nM.

Work on CdiI (natural protein) yielded a Kd [1] of 12.8 nM, a koff [1] of 0.065 s⁻¹ and a kon [1] of 5.1e+06 M⁻¹ s⁻¹. The stoichiometry N (CdiI per CdiA-CT^(M) (1:1)) [2] was 1, the KD1, first site [3] was 1.3 nM and the KD2, second site [3] was 1.1 nM. The dH, first site [3] was -26.7 kcal/mol, the dH, second site [3] was -24.2 kcal/mol and the stoichiometry N [3] was 1.89. The Kd [4] was 26.4 nM, the dH [4] was -29 kcal/mol and the stoichiometry N [4] was 0.993. The Kd [5] was 0.3 nM, the koff [5] was 0.0005 s⁻¹ and the kon [5] was 1.5e+06 M⁻¹ s⁻¹.

In the case of SpoIISA (from UniProt O34853), the Kd [6] is listed as 0.46 nM.

B1: CysK (O-acetylserine sulfyhydrylase) (enzyme, E. coli K12, UniProt P0ABK5 1-323, looked up)
chain: MSKIFEDNSLTIGHTPLVRLNRIGNGRILAKVESRNPSFSVKCRIGANMIWDAEKRGVLKPGVELVEPTSGNTGIALAYVAAARGYKLTLTMPETMSIERRKLLKALGANLVLTEGAKGMKGAIQKAEEIVASNPEKYLLLQQFSNPANPEIHEKTTGPEIWEDTDGQVDVFIAGVGTGGTLTGVSRYIKGTKGKTDLISVAVEPTDSPVIAQALAGEEIKPGPHKIQGIGAGFIPANLDLKLVDKVIGITNEEAISTARRLMEEEGILAGISSGAAVAAALKLQEDESFTNKNIVVILPSSGERYLSTALFADLFTEKELQQ
notes: CysK (O-acetylserine sulfhydrylase), amplified from E. coli K12 genomic DNA, in pNIC28-Bsa4; Cloned between NcoI/XhoI of pNIC28-Bsa4; also called CysK dimer; source: E. coli BL21(DE3), purified (Co-NTA, gel filtration)
For B1, the “stoichiometry N” value [7] was 2, the Kd [1] was 32 nM and the koff [1] was 0.00014 s⁻¹. It also gave a kon [1] of 6200 M⁻¹ s⁻¹, a stoichiometry N [8] of 1 and a stoichiometry N (CysK chain per CdiA-CT^(M) chain (2:2)) [2] of 1. The KD1, first site [9] was 12 nM, the KD2, second site [9] was 13.4 nM and the dH, first site [9] was -11 kcal/mol. For the same molecule, the dH, second site [9] was -26.7 kcal/mol, the stoichiometry N [9] was 0.512 and the KD1, first site [4] was 79.3 nM. The KD2, second site [4] was 89.2 nM, the dH, first site [4] was -5.62 kcal/mol and the dH, second site [4] was -20.2 kcal/mol. The stoichiometry N [4] was 0.494 and the “stoichiometry N” value [10] was 2.

B2: CdiA-CT CT (protein)
chain: VENNALSLVARGCAVAAPCRTKVAEQLLEIGAKAGMAGLAGAAVKDMADRMTSDELEHLITLQMMGNDEITTKYLSSLHDKYGSGAASNPNIGKDLTDAEKVELGGSGSGTGTPPPSENDPKQQNEKTVDKLNQKQESAIKKIDNTIKNALKDHDIIGTLKDMDGKPVPKENGGYWDHMQEMQNTLRGLRNHADTLKNVNNPEAQAAYGRATDAINKIESALKGYGI
In the case of B2, the Kd (CysK) is reported as 79.3 nM and 89.2 nM.
